Source: the RNAGym collection of RNA variant scans (doi:10.1073/pnas.2313332121)

B1: TPR t1 (parent)
chain: GACCAAUCUGCCCUCAGAGCUCGAGAACAUCUUCGGAUGCAGAGGAGGCAGGCUUCGGUGGCGCGAUAGCGCCAACGUCCUCAACCUCCAAUGCAUCCCACCACAUGAUGAUGCCUGAAGAGCCUUGGUUUUUUG

Variants of: B1
Test: polymerase ribozyme fitness, log enrichment relative to wild type (log ratio); higher = more active; in vitro selection for triplet polymerase activity
How it was run: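 A single round of triplicate in vitro selection, including frozen incubation at −7 °C, was applied to PCR-built, transcribed mutant libraries of each subunit of a heterodimeric triplet polymerase ribozyme. Illumina sequencing of input and output libraries retained genotypes with ≥10 input reads and ≥1 read per output. Fitness is the base-2 logarithm of genotype enrichment divided by wild-type enrichment, from inverse-variance-weighted replicate averages.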

Variant | polymerase ribozyme fitness (log ratio)
GACCAAUCUGUCCUCAGAGCUCGAGAACAUCUUCGGAUGGAGAGGAGGCAGGCUUCGGUGCCGCGAUAGCGCCAACGUCCUCAACCUCCAAUGCAUCCCACCACAUGAUGAUGCCUGAUGAGCCUUGGUUUUUUG | -2.64
GACCAAUCUGUCCUCAGAGCUCGAGAACAUCUUCGGAUGCAGAGGAGGCAGGCUUCGGUGGCGCGAUAGCGCCAACGUCCUCAACCUCCAAUGCAUUCCACCACAUGAUGAUGCCUGAAGAGCCUUGGUUUUUUG | -1.74
GACCAAUCUGUCCUCAGAGGUCGAGAACAUCUUCGGAUGCAGAGGAGGCAGGCUUCGGUGGCGCGAUAGCGCCAACGUCCUCAACCUCCAAUGCAGCCCACCACAUGAUGAUGCCUGAAGAGUCUUGGUUUUUUG | -2.94
GACCAAUCUGUCCUCAGAGCUCGAGAACAUCUUGGGAUGCAGAGGAGGCAGGAUUCGGUGGCGCGAUAGCACCAACGUCCUCAACCUCCAAUGCAUCCCACCACAUGAUGAUGCCUGAAGAGCCUUGGUUUUUUG | -6.35
GACCAAUCUGUCCUCAGAGCUCGAGAACAUCUUCGGAUGCAGAGGAGGCAGGUUUCGGUGGCGCGAUAGCGUCAACGUCCUGAACCUCCAAUGCAUCCCACCACAUGAUGAUGCCUGAAGAGCCUUGGUUUUUUG | -1.43
GACCAAUCUGUCCUCAGAGCUCGAGAACAUCUUCGGAUGCAGAGGAGGCAGGCUUCGGUGGCGCGAUAGCGCCAACGUCCUCAACCUCCAAUGCAUCCUACCACAUGAUGAUGCCUGAAGAGCCUUGGUUUUUUG | -3.13
GACCAAUCUGUCCUCAGAGCUCGAGAACAUCUUCGGAUGCAGAGGAGGAAGGCUCCGGUAGCGCGAUAGCGCCAACGUCCUCAACCAGCAAUGCCUCCCACCACAUGAUGAUGCCUGAAGUGCCUUGGUUUUUUG | -2.74
GACCAAUCUGUCCUUCGAGCUCGAGAACAUCUUCGGAUGCAAAGGAGGCAGGCUUCGGUGGCGCGAUAGCGCCAACGUCCUCAACCUCCAAUGCAUCCCACCACAUGAUGAUGCCUGAAGAGCCUUGGUUUUUUG | -2.92
GACCAAUCUGUCCUCAGAGCUCGAGAACAUCUUCGGAUGCAGAGGAGGCAGGCUUGGGUGGCGCGAUAGCGCCAACGUCCUCAACCUUCAAUGCAUCCCACCACAUGAUGAUGCCUGAACAUCCUUAGUUUUUUG | -0.748
GACCAAUCUGUCCUCAGAGCUCGAGAACAUCUUCGGAUGCAGAGGAGGCAGGCUUCGGUGGCGCGAUAGCGCCAACGUCCUCAACCUCCAAUGAAUCCCACCACAUGAUGAUGCCUGAAGAGCCUUGGUUUUUUG | -2.35
GACCAAUCUGUCCUCAGAGCUCGAGAACAUCUUCGGAUGCAGAGGAGGCAGGCUUCGGUGGGGCGAUAGCGCCAACGUCCUCAACCUCUAAUGCAUCCCACCACAUGAUGAUGCCUGAAGCGCGAUGGUUUUUUG | -0.483
GACCAAUCUGUCCUCAGAGCUCGAGAACAUCUUCGGAUGCAGAGGAGGCAGGCUUCGGUGGCGCGAUAGCGCCAACGUCCUCAACCUCCAAUGCAUCCCACCACAUGAUGAUGCCUGAAGAGCAUUGGUUUUUUG | 1.7
GACCAAUCUGUCCUCAGAGCUCGAGAACAUCUUCGGAUGCAGAGGAGGCAGGCUUCGGUGGCGCGAUAGCGCCAACGUCUUCAACCUCCAAUGCAUCCCACCACAUGAUGAUCCCUGAAGAGCCUUGGUUUUUUG | -3.93
GACCAAUCUGUCCUCAGAGCUCGAGAACAUCUUCGGAUGCAGAGGAGGCAGGCUUCGGUGGCGCGAUAGUGCCAACGUCCUCAACCUCCAAUGCAUCCCAACACAUGAUGAUGCCUGAAGAGCCUUGCUUUUUUG | -4.09
GACCAAUCUGUCCUCAGAGCUCGAGAACAUCUUCGGAUGCAGAGGAGGCAGGCUUCGGUGGCGCGAUAGCGCCAACGUCCUCAACCUCCAAUGCAUCCCACCACAUGAUGAUGCUUGAAGAGCCUUGGUUUUUUG | -1.61
GACCAAUCUGUCCUCAGAGGUCGAGAACAUCUUCGGAUGCAGAGGAGGCAGGCUUCGGUGGCGCGAUAGCGCCAACGUCCUCAACCUCCAAUGCAUCCCACCACAUGAUGAUGCCUUAAGAGCCUUGGUUUUUUG | -4.42
GACCAAUCUGUCCUCAGAGCUUGAGAACAUCUUCGGAUGCAGAGGAGGCAGGCUUCGGUGGCGCGAUAGCGCCAACGUCCUCAACCUCCAAUGCAUCCCACCACAUGAUGAUGCCUGAAGAGCCUUGGUUUUUUG | -4.2
GACCAAUCUGUCCUCAGAGCUAGAGAACAUCUUCGGAUGCAGAGGAGGCAGGCUUCGGUGGCGCGAUAGCGCCAACGUCCUCAACCUCCAAUGCAUCCCACCACAUGAUGAUGCCUGAAGAGCCUUGGUUUUUUG | -4.84
GACCAAUCUGUCCUGAGAGCUCGAGAGCAUCUUCGGAUGCAGAGGAGGCAGGCUUCGGUGGCGCGAUAGCGCCAACGUCCUCAACCUCCAAUGGAUCCCACCACAUGACAAUGCCUGAUAAGCCUUGGUUUUUUG | -7.62
GACCAAUCUGUCCUCAGAGCUCGAGAACAUCUUCGGAUGCAGAGGAGGCAGGCUUCGGUGGCGUGAUAGCGCCAACGCCCUCAACCUCCAAUGCAUCCCACCACAUGAUGAUGCCUGAAGAGCCUUGGUUUUUUG | -0.654
GACCAAUCUGUCCUCAGAGCUCGAGAAGAUCUUCGGGUGCAGAGGAGGCAGGCUUCGGUGGCGCGAUAGCGCCAACGUCCUCAACCUCCAAUGCAUCCCACCACAUGAUGAUGCCUGAAUAGCCUUGGUAUUUUG | -2.33
